Measured values as given in publication PMC4005675.

Key:
[1] = molecular target: full-length ComE^D58E from Streptococcus pneumoniae (Streptococcus pneumoniae strain R6); experiment: SAXS
[2] = molecular target: isolated REC^D58E domain of ComE (Streptococcus pneumoniae strain R6); experiment: SAXS
[3] = molecular target: isolated REC^D58E domain of ComE (Streptococcus pneumoniae strain R6); experiment: SEC

In the case of “full-length ComE^D58E from Streptococcus pneumoniae (natural protein)”, the stoichiometry N [1] is reported as 2.
“isolated REC^D58E domain of ComE (domain or fragment)” was tested, and the stoichiometry N [2] was 2 and the stoichiometry N [3] was 2.
